Laboratory results taken from the supplement of paper PMC10724198.
± gives the standard deviation of the averaged measurements.

Tested on: Saccharomyces cerevisiae
Assay: protein stability index of tFT-peptide fusion (C-terminal peptide) (PSI (0-1 scale)); higher = more stable (slower turnover)
Settings: temperature: 30 C
Procedure: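 MPS profiling in S. cerevisiae of the yeast C-terminome library: the last 12 aa of each annotated ORF are fused to the C-terminus of a sfGFP-mCherry timer, after a GGGS linker. Cells are FACS-sorted into 8 mCherry/sfGFP bins and deep-sequenced. PSI runs from 0 (unstable) to 1 (stable); wild type and das1Δ backgrounds, two technical replicates each.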

[1] = genetic background: das1 deletion

| Sequence | protein stability index [1] | protein stability index (genetic background: wild type) |
| --- | --- | --- |
| PVVFHSGPVVWK [YLR415C C-terminal 12 aa] | 0.72 ± 0.034 | 0.6969 ± 0.0058 |
| PYLEEAYSNLEE [PPX1 C-terminal 12 aa] | 0.685 ± 0.0024 | 0.722 ± 0.048 |
| QCPVCRSPLPPL [TUL1 C-terminal 12 aa] | 0.714 ± 0.023 | 0.742 ± 0.013 |
| QEAGAFTFNEDF [RNR2 C-terminal 12 aa] | 0.726 ± 0.018 | 0.711 ± 0.0081 |
| QEFVCFLFWPLT [YOR335W-A C-terminal 12 aa] | 0.63 ± 0.0097 | 0.6034 ± 0.0059 |
| QELCADSTIYHM [LIP1 C-terminal 12 aa] | 0.687 ± 0.017 | 0.734 ± 0.065 |
| QELLKLLENEKK [SLK19 C-terminal 12 aa] | 0.727 ± 0.029 | 0.726 ± 0.047 |
| QFSFKAVTFLLI [YOR314W-A C-terminal 12 aa] | 0.629 ± 0.048 | 0.563 ± 0.052 |
| QILLDKLNAVKK [HIT1 C-terminal 12 aa] | 0.66 ± 0.03 | 0.653 ± 0.019 |
| QKDSRGKKKIKK [YMR114C C-terminal 12 aa] | 0.691 ± 0.026 | 0.63611 ± 0.00024 |
| QKKEEAKHKASE [UFD2 C-terminal 12 aa] | 0.711 ± 0.0087 | 0.721 ± 0.067 |
| QNNSQGFLREII [TDA7 C-terminal 12 aa] | 0.6961 ± 0.004 | 0.6925 ± 0.0034 |
| QNRFISINKIFW [YDR133C C-terminal 12 aa] | 0.7034 ± 0.0032 | 0.6671 ± 0.0016 |
| QRRTSLDYGGYF [TAF3 C-terminal 12 aa] | 0.708 ± 0.02 | 0.725 ± 0.011 |
| QSLVESPPPYVP [SNA4 C-terminal 12 aa] | 0.6915 ± 0.0048 | 0.7 ± 0.015 |
| QTQLCKRKKKLT [VIK1 C-terminal 12 aa] | 0.687 ± 0.024 | 0.608 ± 0.051 |

| Sequence | protein stability index [1] | protein stability index (genetic background: wild type) |
| --- | --- | --- |
| QTVSTYTKVTPK [NCE103 C-terminal 12 aa] | 0.715 ± 0.016 | 0.702 ± 0.025 |
| QVLGTEEPTVRT [PGM2 C-terminal 12 aa] | 0.696 ± 0.046 | 0.6625 ± 0.0017 |
| QVVDTIKDVHRC [YBR197C C-terminal 12 aa] | 0.7 ± 0.027 | 0.706 ± 0.021 |
| RALVDAIQLRGV [CGI121 C-terminal 12 aa] | 0.68 ± 0.024 | 0.663 ± 0.0088 |
| RDFFFKNVCVKM [TBS1 C-terminal 12 aa] | 0.623 ± 0.018 | 0.56 ± 0.0057 |
| RDLQSALVRQLL [CAD1 C-terminal 12 aa] | 0.718 ± 0.025 | 0.68 ± 0.021 |
| RDRLVESCHFTQ [CIN4 C-terminal 12 aa] | 0.722 ± 0.023 | 0.706 ± 0.022 |
| RDVTDWWESREI [CCZ1 C-terminal 12 aa] | 0.7553 ± 0.0041 | 0.7652 ± 0.0026 |
| REKAEAEAEKKK [RPL13A C-terminal 12 aa] | 0.704 ± 0.014 | 0.68 ± 0.0053 |
| RELGFLFGLNAL [ULS1 C-terminal 12 aa] | 0.751 ± 0.011 | 0.6855 ± 0.0018 |
| RELWDEEKEIVL [KES1 C-terminal 12 aa] | 0.704 ± 0.033 | 0.73 ± 0.037 |
| RERAKKLVTWLI [SSY1 C-terminal 12 aa] | 0.6701 ± 0.0019 | 0.475 ± 0.026 |
| RFIRTANKKDYL [IMP4 C-terminal 12 aa] | 0.671 ± 0.0071 | 0.7335 ± 0.0025 |
| RHHEQSHGQEDH [YLR361C-A C-terminal 12 aa] | 0.6985 ± 0.0034 | 0.6868 ± 0.0011 |
| RHICVGAKLCKF [MCH4 C-terminal 12 aa] | 0.8165 ± 0.0035 | 0.818 ± 0.11 |
